{"source": "patent US11788081", "about": "(STICHTING VU, dated 2023)", "biological_target": "T1, KIX domain from the human CREB binding protein (KIX wt) (human, UniProt Q92793 587-672)", "T1 construct": "domain: KIX domain; Expressed as GST fusion in E. coli, GST removed by PreScission cleavage", "T1 sequence (Q92793 587-672 limits assumed)": "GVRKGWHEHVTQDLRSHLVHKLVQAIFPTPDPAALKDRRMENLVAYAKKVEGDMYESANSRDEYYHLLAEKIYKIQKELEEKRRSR", "assay": "fluorescence polarization, FITC-labeled MLL peptide, protein titrated 70 µM-0 µM", "method": "Binding of K1-t1 and K1-t2 to mixed lineage leukemia (MLL) transcription factor was evaluated using the FITC-labeled peptide FITC-020c-[…](Nle)[…]-NH2 (SEQ ID NO: 6). This sequence is derived from MLL and will be refereed as MLL peptide throughout. A 40 nM solution of MLL peptide in 25 mM HEPES (pH 7.4), 100 mM NaCl and 2 mM TCEP was prepared. A 3-fold dilution of KIX, K1-t1 and K1-t2 was performed in 14 steps on a 384-well-plate (black, round bottom, Corning) using the same buffer. 5 μL of 40 nM MLL peptide solution was then added, and the final 20 μL solution was incubated at r.t. A final protein range of 70 μM-0 μM was used. After 1 h-incubation, fluorescence polarization was measured using a Spark 20M plate reader (Tecan) with λ(ex)=485 nm and λ(em)=525 nm. Kd were determined by applying nonlinear regression analysis of dose-response curves in GraphPad Prism software.", "note": "Non-standard residues stand in square brackets, D forms with d. *: point of attachment. FITC = O=C1OC2(c3ccc(O)cc3Oc3cc(O)ccc32)c2ccc(NC(=S)*)cc21; Nle = CCCC[C@H](N)C(=O)O; AEEA = NCCOCCOCC(=O)O", "data": [{"binder": "{FITC-AEEA}-GNILPSDI[Nle]DFVLKNTP-NH2 (Synthetic peptide made by Fmoc SPPS on Rink amide resin; Used at 10 nM final (5 uL of 40 nM in 20 uL) in the FP assay; also called mixed lineage leukemia (MLL) transcription factor derived peptide)", "note": "[MLL peptide FITC-O2Oc-GNILPSDI(Nle)DFVLKNTP-NH2]", "values": [{"measurement": "Kd", "result": 600, "unit": "nM"}]}]}
